Biological target: Drosophila RNA polymerase II large subunit, P04052
Sequence (P04052 whole entry): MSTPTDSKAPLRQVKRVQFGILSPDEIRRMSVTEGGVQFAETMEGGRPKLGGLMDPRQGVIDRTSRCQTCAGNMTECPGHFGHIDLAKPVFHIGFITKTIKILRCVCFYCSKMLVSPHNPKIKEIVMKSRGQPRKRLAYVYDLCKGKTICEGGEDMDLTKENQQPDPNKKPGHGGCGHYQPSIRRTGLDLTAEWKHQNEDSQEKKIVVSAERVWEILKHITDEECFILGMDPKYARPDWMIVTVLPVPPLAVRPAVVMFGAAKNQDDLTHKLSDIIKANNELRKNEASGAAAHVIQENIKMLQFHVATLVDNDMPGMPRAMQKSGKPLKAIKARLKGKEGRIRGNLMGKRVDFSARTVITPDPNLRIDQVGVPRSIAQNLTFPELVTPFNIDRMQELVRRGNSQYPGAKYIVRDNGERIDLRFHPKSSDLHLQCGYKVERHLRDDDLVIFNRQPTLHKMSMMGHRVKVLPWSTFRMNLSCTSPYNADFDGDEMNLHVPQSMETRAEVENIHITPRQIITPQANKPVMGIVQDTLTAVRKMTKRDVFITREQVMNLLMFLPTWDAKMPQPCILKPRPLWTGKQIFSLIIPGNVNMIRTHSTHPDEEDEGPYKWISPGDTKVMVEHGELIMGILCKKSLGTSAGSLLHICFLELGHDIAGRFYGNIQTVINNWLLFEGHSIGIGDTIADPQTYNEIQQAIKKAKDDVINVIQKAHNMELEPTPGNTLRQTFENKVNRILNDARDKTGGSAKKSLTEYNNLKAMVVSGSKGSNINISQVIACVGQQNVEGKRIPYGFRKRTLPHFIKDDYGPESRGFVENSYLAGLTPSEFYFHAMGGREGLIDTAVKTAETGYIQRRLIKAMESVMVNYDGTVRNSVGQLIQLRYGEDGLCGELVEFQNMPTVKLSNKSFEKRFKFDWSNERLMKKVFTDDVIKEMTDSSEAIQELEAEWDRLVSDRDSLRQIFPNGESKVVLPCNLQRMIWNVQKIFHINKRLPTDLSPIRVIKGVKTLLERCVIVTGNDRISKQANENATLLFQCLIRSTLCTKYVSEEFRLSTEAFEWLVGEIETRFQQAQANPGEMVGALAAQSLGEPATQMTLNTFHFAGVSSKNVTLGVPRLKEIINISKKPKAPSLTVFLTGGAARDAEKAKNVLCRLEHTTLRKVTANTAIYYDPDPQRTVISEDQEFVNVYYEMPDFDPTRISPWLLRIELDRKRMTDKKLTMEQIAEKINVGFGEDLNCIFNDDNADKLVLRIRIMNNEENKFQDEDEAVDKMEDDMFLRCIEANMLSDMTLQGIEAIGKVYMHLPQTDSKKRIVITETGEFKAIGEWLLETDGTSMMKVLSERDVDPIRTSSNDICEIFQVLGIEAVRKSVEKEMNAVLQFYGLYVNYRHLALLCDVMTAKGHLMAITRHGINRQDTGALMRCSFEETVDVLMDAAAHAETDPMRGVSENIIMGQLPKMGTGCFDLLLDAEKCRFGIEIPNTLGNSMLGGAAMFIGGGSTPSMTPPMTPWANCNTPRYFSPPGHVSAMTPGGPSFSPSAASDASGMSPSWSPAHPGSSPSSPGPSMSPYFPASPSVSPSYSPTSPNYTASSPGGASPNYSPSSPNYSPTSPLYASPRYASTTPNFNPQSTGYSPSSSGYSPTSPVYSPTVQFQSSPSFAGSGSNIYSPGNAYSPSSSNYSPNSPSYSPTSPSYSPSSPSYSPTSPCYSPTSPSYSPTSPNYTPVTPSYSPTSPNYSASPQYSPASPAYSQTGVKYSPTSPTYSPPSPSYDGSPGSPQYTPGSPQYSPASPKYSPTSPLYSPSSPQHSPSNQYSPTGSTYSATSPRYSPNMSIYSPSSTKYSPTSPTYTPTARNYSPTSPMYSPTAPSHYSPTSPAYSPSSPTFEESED

B1: Drosophila P-TEFb (protein)
chain 1: MAHMSHMLQQPSGSTPSNVGSSSSRTMSLMEKQKYIEDYDFPYCDESNKYEKVAKIGQGTFGEVFKAREKKGNKKFVAMKKVLMDNEKEGFPITALREIRILQLLKHENVVNLIEICRTKATATNGYRSTFYLVFDFCEHDLAGLLSNMNVKFSLGEIKKVMQQLLNGLYYIHSNKILHRDMKAANVLITKHGILKLADFGLARAFSIPKNESKNRYTNRVVTLWYRPPELLLGDRNYGPPVDMWGAGCIMAEMWTRSPIMQGNTEQQQLTFISQLCGSFTPDVWPGVEELELYKSIELPKNQKRRVKERLRPYVKDQTGCDLLDKLLTLDPKKRIDADTALNHDFFWTDPMPSDLSKMLSQHLQSMFEYLAQPRRSNQMRNYHQQLTTMNQKPQDNSMIDRVW
chain 2: MSLLATPMPQAATASSSSSASAAASASGIPITANNNLPFEKDKIWYFSNDQLANLPSRRCGIKGDDELQYRQMTAYLIQEMGQRLQVSQLCINTAIVYMHRFYAFHSFTHFHRNSMASASLFLAAKVEEQPRKLEHVIRAANKCLPPTTEQNYAELAQELVFNENVLLQTLGFDVAIDHPHTHVVRTCQLVKACKDLAQTSYFLASNSLHLTSMCLQYRPTVVACFCIYLACKWSRWEIPQSTEGKHWFYYVDKTVSLDLLKQLTDEFIAIYEKSPARLKSKLNSIKAIAQGASNRTANSKDKPKEDWKITEMMKGYHSNITTPPELLNGNDSRDRDRDRERERERERDPSSLLPPPAMVPQQRRQDGGHQRSSSVSGVPGSSSSSSSSSHKMPNYPGGMPPEAHPDHKSKQPGYNNRMPSSHQRSSSSGLGSSGSGSQHSSSSSSSSSQQPGRPSMPVDYHKSSRGMPPVGVGMPPHGSHKMTSGSKPQQPQQQPVPHPSASNSSASGMSSKDKSQSNKMYPNAPPPYSNSAPQNPLMSRGGYPGASNGSQPPPPAGYGGHRSKSGSTVHGMPHFEQQLPYSQSQSYGHMQQQPVPQSQQQQMPPEASQHSLQSKNSLFSPEWPDIKKEPMSQSQPQLFNGLLPPPAPPGHDYKLNSHPRDKESPKKERLTPTKKDKHRPVMPPMGSGNSSSGSGSSKPMLPPHKKQIPHGGDLLTNPGESGSLKRPNEISGSQYGLNKLDEIDNSNMPREKLRKLDTTTGLPTYPNYEEKHTPLNMSNGIETTPDLVRSLLKESLCPSNASLLKPDALTMPGLKPPAELLEPMPAPATIKKEQGITPMTSLASGPAPMDLEVPTKQAGEIKEESSSKSEKKKKKDKHKHKEKDKSKDKTEKEERKKHKRDKQKDRSGSGGSKDSSLPNEPLKMVIKNPNGSLQAGASAPIKLKISKNKVEPNNYSAAAGLPGAIGYGLPPTTATTTSASIGAAAPVLPPYGAGGGGYSSSGGSSSGGSSKKKHSDRDRDKESKKNKSQDYAKYNGAGGGIFNPLGGAGAAPNMSGGMGAPMSTAVPPSMLLAPTGAVPPSAAGLAPPPMPVYNKK
- CTD kinase assay (phosphate incorporation, mobility shift): incubation of P-TEFb with intact RNA polymerase II caused the incorporation of phosphate into the large subunit and a shift to the IIo form
- incorporation of label into the large subunit after chymotrypsin truncation of the CTD: the CTD-less polymerase (20 min digestion) was not detectably phosphorylated

Reference: US7018836
